Drawing on patent US20140031259A1, this text covers luciferase reporter interaction signal in mammalian 2-hybrid assay, compared to WT-PH/WT-KD or E17K-PH/WT-KD for 2 substances.

In assay [1] the target is AKT1 kinase domain (WT) fused to the Gal4 DNA binding domain (UniProt P04386). As to the kind of experiment: cell-based or functional assay.
Assay [2] addresses AKT1 D323H kinase domain fused to the Gal4 DNA binding domain (UniProt P04386). As to the kind of experiment: cell-based or functional assay.

“AKT1 L52R PH domain fused to the VP16 activation domain (from UniProt P31749 5-108)” displayed a luciferase reporter interaction signal in mammalian 2-hybrid assay, compared to WT-PH/WT-KD or E17K-PH/WT-KD in assay [1] of 50 % reduction.

On to “AKT1 PH domain (WT) fused to the VP16 activation domain (from UniProt P31749 5-108)”, for which the luciferase reporter interaction signal in mammalian 2-hybrid assay, compared to WT-PH/WT-KD or E17K-PH/WT-KD in assay [2] amounted to 50 % reduction.
